Reference: publication PMC13281853

Target: ancGR2-LBD (ligand-binding domain of the ancestral glucocorticoid receptor 2), Dex-bound
Test: SPR

Kd: 17.4 µM
Substance: ancGR2-LBD (ligand-binding domain of the ancestral glucocorticoid receptor 2), Dex-bound (domain or fragment)
